Residue numbers refer to the chain shown, from its start. Blank lines part the entries; values can stand above or below the binder they belong to.
Biological target: T1, CD3 epsilon homodimer protein (UniProt P07766 23-126)
T1 construct: also called CD3 (CD3 epsilon)
Assay: SPR, CD3 epsilon homodimer on chip, one-arm antibody as analyte;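 also: surface plasmon resonance at 25 °C with CD3 epsilon homodimer amine-coupled to a CM4 sensor chip, antibody injected as analyte, HBS-EP+ as running buffer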

T1 sequence (P07766 23-126): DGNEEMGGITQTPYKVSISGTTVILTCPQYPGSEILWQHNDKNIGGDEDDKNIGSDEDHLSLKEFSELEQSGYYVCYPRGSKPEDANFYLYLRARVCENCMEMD

KD ratio (KD of CE115HA000/KD of altered form): 0.83
B1: CE115HA000 S77T (antibody, human IgG1, kappa, L234A L235A, N297A, name in Kabat numbering)
heavy: QVQLVESGGGVVQPGRSLRLSCAASGFTFSNAWMHWVRQAPGKGLEWVAQIKAKSNNYATYYAESVKGRFTISRDDSKNTLYLQMNSLKTEDTAVYYCRYVHYGAYYGVDAWGQGTTVTVSSASTKGPSVFPLAPSSKSTSGGTAALGCLVKDYFPEPVTVSWNSGALTSGVHTFPAVLQSSGLYSLSSVVTVPSSSLGTQTYICNVNHKPSNTKVDKKVEPKSCDKTHTCPPCPAPEAAGGPSVFLFPPKPKDTLMISRTPEVTCVVVDVSHEDPEVKFNWYVDGVEVHNAKTKPREEQYASTYRVVSVLTVLHQDWLNGKEYKCKVSNKALPAPIEKTISKAKGQPREPQVYTLPPSRCELTKNQVSLSCAVKGFYPSDIAVEWESNGQPENNYKTTPPVLDSDGSFFLVSKLTVDKSRWQQGNVFSCSVMHEALHNHYTQKSLSLSPDYKDDDDK
chain: EPKSSDKTHTCPPCPAPELLGGPSVFLFPPKPKDTLMISRTPEVTCVVVDVSHEDPEVKFNWYVDGVEVHNAKTKPREEQYNSTYRVVSVLTVLHQDWLNGKEYKCKVSNKALPAPIEKTISKAKGQPREPQVCTLPPSRDELTKNQVSLWCLVKGFYPSDIAVEWESNGQPENNYKTTPPVLDSDGSFFLYSKLTVDKSRWQQGNVFSCSVMHEALHNRYTQKSLSLSP
light: DIVMTQSPLSLPVTPGEPASISCRSSQSLVHSNRNTYLHWYQQKPGQAPRLLIYKVSNRFSGVPDRFSGSGSGTDFTLKISRVEAEDVGVYYCGQGTQVPYTFGQGTKLEIKRTVAAPSVFIFPPSDEQLKSGTASVVCLLNNFYPREAKVQWKVDNALQSGNSQESVTEQDSKDSTYSLSSTLTLSKADYEKHKVYACEVTHQGLSSPVTKSFNRGEC
notes: one-arm antibody

KD ratio (KD of CE115HA000/KD of altered form): 78300
B2: CE115HA000 V95G (antibody, human IgG1, kappa, L234A L235A, N297A, name in Kabat numbering)
heavy: B1 heavy with T80S, V101G
chain: B1 chain
light: B1 light
notes: one-arm antibody

KD ratio (KD of CE115HA000/KD of altered form): 3.15
B3: CE115HA000 V95A (antibody, human IgG1, kappa, L234A L235A, N297A, name in Kabat numbering)
heavy: B1 heavy with T80S, V101A
chain: B1 chain
light: B1 light
notes: one-arm antibody

KD ratio (KD of CE115HA000/KD of altered form): 30
B4: CE115HA000 W33A (antibody, human IgG1, kappa, L234A L235A, N297A, name in Kabat numbering)
heavy: B1 heavy with W33A, T80S
chain: B1 chain
light: B1 light
notes: one-arm antibody

KD ratio (KD of CE115HA000/KD of altered form): 4.61
B5: CE115HA000 V95S (antibody, human IgG1, kappa, L234A L235A, N297A, name in Kabat numbering)
heavy: B1 heavy with T80S, V101S
chain: B1 chain
light: B1 light
notes: one-arm antibody

KD ratio (KD of CE115HA000/KD of altered form): 1690
B6: CE115HA000 W33D (antibody, human IgG1, kappa, L234A L235A, N297A, name in Kabat numbering)
heavy: B1 heavy with W33D, T80S
chain: B1 chain
light: B1 light
notes: one-arm antibody

KD ratio (KD of CE115HA000/KD of altered form): 1.64
B7: CE115HA000 V100cD (antibody, human IgG1, kappa, L234A L235A, N297A, name in Kabat numbering)
heavy: B1 heavy with T80S, V109D
chain: B1 chain
light: B1 light
notes: one-arm antibody

KD ratio (KD of CE115HA000/KD of altered form): 4.96
B8: CE115HA000 W33H (antibody, human IgG1, kappa, L234A L235A, N297A, name in Kabat numbering)
heavy: B1 heavy with W33H, T80S
chain: B1 chain
light: B1 light
notes: one-arm antibody

KD ratio (KD of CE115HA000/KD of altered form): 0.79
B9: CE115HA000 T28S (antibody, human IgG1, kappa, L234A L235A, N297A, name in Kabat numbering)
heavy: B1 heavy with T28S, T80S
chain: B1 chain
light: B1 light
notes: one-arm antibody

KD ratio (KD of CE115HA000/KD of altered form): 108
B10: CE115HA000 V95D (antibody, human IgG1, kappa, L234A L235A, N297A, name in Kabat numbering)
heavy: B1 heavy with T80S, V101D
chain: B1 chain
light: B1 light
notes: one-arm antibody

KD ratio (KD of CE115HA000/KD of altered form): 0.9
B11: CE115HA000 T57N (antibody, human IgG1, kappa, L234A L235A, N297A, name in Kabat numbering)
heavy: B1 heavy with T60N, T80S
chain: B1 chain
light: B1 light
notes: one-arm antibody

KD ratio (KD of CE115HA000/KD of altered form): 1.15
B12: CE115HA000 V95K (antibody, human IgG1, kappa, L234A L235A, N297A, name in Kabat numbering)
heavy: B1 heavy with T80S, V101K
chain: B1 chain
light: B1 light
notes: one-arm antibody

KD ratio (KD of CE115HA000/KD of altered form): 0.93
B13: CE115HA000 T28D (antibody, human IgG1, kappa, L234A L235A, N297A, name in Kabat numbering)
heavy: B1 heavy with T28D, T80S
chain: B1 chain
light: B1 light
notes: one-arm antibody

KD ratio (KD of CE115HA000/KD of altered form): 1.31
B14: CE115HA000 V100cE (antibody, human IgG1, kappa, L234A L235A, N297A, name in Kabat numbering)
heavy: B1 heavy with T80S, V109E
chain: B1 chain
light: B1 light
notes: one-arm antibody

KD ratio (KD of CE115HA000/KD of altered form): 0.89
B15: CE115HA000 Y55D (antibody, human IgG1, kappa, L234A L235A, N297A, name in Kabat numbering)
heavy: B1 heavy with Y58D, T80S
chain: B1 chain
light: B1 light
notes: one-arm antibody

KD ratio (KD of CE115HA000/KD of altered form): 0.69
B16: CE115HA000 W33Y (antibody, human IgG1, kappa, L234A L235A, N297A, name in Kabat numbering)
heavy: B1 heavy with W33Y, T80S
chain: B1 chain
light: B1 light
notes: one-arm antibody

KD ratio (KD of CE115HA000/KD of altered form): 0.83
B17: CE115HA000 V11L (antibody, human IgG1, kappa, L234A L235A, N297A, name in Kabat numbering)
heavy: B1 heavy with V11L, T80S
chain: B1 chain
light: B1 light
notes: one-arm antibody

KD ratio (KD of CE115HA000/KD of altered form): 50.5
B18: CE115HA000 V95E (antibody, human IgG1, kappa, L234A L235A, N297A, name in Kabat numbering)
heavy: B1 heavy with T80S, V101E
chain: B1 chain
light: B1 light
notes: one-arm antibody

KD ratio (KD of CE115HA000/KD of altered form): 0.97
B19: CE115HA000 V100cP (antibody, human IgG1, kappa, L234A L235A, N297A, name in Kabat numbering)
heavy: B1 heavy with T80S, V109P
chain: B1 chain
light: B1 light
notes: one-arm antibody

KD ratio (KD of CE115HA000/KD of altered form): 0.81
B20: CE115HA000 T57I (antibody, human IgG1, kappa, L234A L235A, N297A, name in Kabat numbering)
heavy: B1 heavy with T60I, T80S
chain: B1 chain
light: B1 light
notes: one-arm antibody

KD ratio (KD of CE115HA000/KD of altered form): 0.66
B21: CE115HA000 W33F (antibody, human IgG1, kappa, L234A L235A, N297A, name in Kabat numbering)
heavy: B1 heavy with W33F, T80S
chain: B1 chain
light: B1 light
notes: one-arm antibody

KD ratio (KD of CE115HA000/KD of altered form): 1.22
B22: CE115HA000 T57K (antibody, human IgG1, kappa, L234A L235A, N297A, name in Kabat numbering)
heavy: B1 heavy with T60K, T80S
chain: B1 chain
light: B1 light
notes: one-arm antibody

KD ratio (KD of CE115HA000/KD of altered form): 0.87
B23: CE115HA000 T57A (antibody, human IgG1, kappa, L234A L235A, N297A, name in Kabat numbering)
heavy: B1 heavy with T60A, T80S
chain: B1 chain
light: B1 light
notes: one-arm antibody

Reference: patent publication US20210388087A1 (Chugai, published 2021)
